In patent publication US20230002480A1:

Key:
Assay in all cases: cell-based or functional assay
[1] = target: HIV-1 Env of pseudovirus Du156.12 (HIV-1)
[2] = target: HIV-1 Env of pseudovirus ZM135M.PL10a (HIV-1)
[3] = target: HIV-1 Env of pseudovirus CNE20 (HIV-1)
[4] = target: HIV-1 Env of pseudovirus CAP45.2.00.G3 (HIV-1)
[5] = target: HIV-1 Env of pseudovirus 6535.3 (HIV-1)
[6] = target: HIV-1 Env of pseudovirus 1054_07_TC4_1499 (HIV-1)
[7] = target: HIV-1 Env of pseudovirus CAAN5342.A2 (HIV-1)
[8] = target: HIV-1 Env of pseudovirus 246F C1G (HIV-1)
[9] = target: HIV-1 Env of pseudovirus PVO.4 (HIV-1)
[10] = target: HIV-1 Env of pseudovirus T250-4 (HIV-1)
[11] = target: HIV-1 Env of pseudovirus 191955_A11 (HIV-1)
[12] = target: HIV-1 Env of pseudovirus CNE52 (HIV-1)
[13] = target: HIV-1 Env of pseudovirus WEAU_d15_410_787 (HIV-1)
[14] = target: HIV-1 Env of pseudovirus ZM233M.PB6 (HIV-1)
[15] = target: HIV-1 Env of pseudovirus HIV-0013095-2.11 (HIV-1)
[16] = target: HIV-1 Env of pseudovirus RHPA4259.7 (HIV-1)
[17] = target: HIV-1 Env of pseudovirus Q259.d2.17 (HIV-1)
[18] = target: HIV-1 Env of pseudovirus AC10.0.29 (HIV-1)
[19] = target: HIV-1 Env of pseudovirus Ce704809221_1B3 (HIV-1)
[20] = target: HIV-1 Env of pseudovirus 263-8 (HIV-1)
[21] = target: HIV-1 Env of pseudovirus MS208.A1 (HIV-1)
[22] = target: HIV-1 Env of pseudovirus ZM247v1(Rev-) (HIV-1)
[23] = target: HIV-1 Env of pseudovirus Ce703010054_2A2 (HIV-1)
[24] = target: HIV-1 Env of pseudovirus 928-28 (HIV-1)
[25] = target: HIV-1 Env of pseudovirus Q461.e2 (HIV-1)
[26] = target: HIV-1 Env of pseudovirus 6240_08_TA5_4622 (HIV-1)
[27] = target: HIV-1 Env of pseudovirus CNE53 (HIV-1)
[28] = target: HIV-1 Env of pseudovirus Ce1172_H1 (HIV-1)

PG9 (antibody) gave an IC50, titer in TZM.bl cells [1] of 0.026 µg/mL, an IC80, titer in TZM.bl cells [1] of 0.19 µg/mL and an IC50, titer in TZM.bl cells [2] of 20.6 µg/mL. For the same substance, the IC80, titer in TZM.bl cells [2] was over 50 µg/mL, the IC50, titer in TZM.bl cells [3] was 0.052 µg/mL and the IC80, titer in TZM.bl cells [3] was 0.278 µg/mL. It also gave an IC50, titer in TZM.bl cells [4] of 0.007 µg/mL, an IC80, titer in TZM.bl cells [4] of 0.029 µg/mL and an IC50, titer in TZM.bl cells [5] of 0.176 µg/mL. For the same substance, the IC80, titer in TZM.bl cells [5] was 0.627 µg/mL, the IC50, titer in TZM.bl cells [6] was over 50 µg/mL and the IC80, titer in TZM.bl cells [6] was over 50 µg/mL. It also gave an IC50, titer in TZM.bl cells [7] of 4.6 µg/mL, an IC80, titer in TZM.bl cells [7] of 27 µg/mL and an IC50, titer in TZM.bl cells [8] of over 50 µg/mL. The IC80, titer in TZM.bl cells [8] was over 50 µg/mL, the IC50, titer in TZM.bl cells [9] was 10.6 µg/mL and the IC80, titer in TZM.bl cells [9] was over 50 µg/mL. The IC50, titer in TZM.bl cells [10] was 0.005 µg/mL, the IC80, titer in TZM.bl cells [10] was 0.014 µg/mL and the IC50, titer in TZM.bl cells [11] was 0.053 µg/mL. For the same substance, the IC80, titer in TZM.bl cells [11] was 0.154 µg/mL, the IC50, titer in TZM.bl cells [12] was 0.029 µg/mL and the IC80, titer in TZM.bl cells [12] was 0.081 µg/mL. It also gave an IC50, titer in TZM.bl cells [13] of 4.08 µg/mL, an IC80, titer in TZM.bl cells [13] of over 50 µg/mL and an IC50, titer in TZM.bl cells [14] of 0.01 µg/mL. The IC80, titer in TZM.bl cells [14] was 0.026 µg/mL, the IC50, titer in TZM.bl cells [15] was 0.01 µg/mL and the IC80, titer in TZM.bl cells [15] was 0.03 µg/mL. For the same substance, the IC50, titer in TZM.bl cells [16] was 22.6 µg/mL, the IC80, titer in TZM.bl cells [16] was over 50 µg/mL and the IC50, titer in TZM.bl cells [17] was 0.029 µg/mL. It also gave an IC80, titer in TZM.bl cells [17] of 1.38 µg/mL, an IC50, titer in TZM.bl cells [18] of 0.117 µg/mL and an IC80, titer in TZM.bl cells [18] of 0.845 µg/mL. The IC50, titer in TZM.bl cells [19] was 0.037 µg/mL, the IC80, titer in TZM.bl cells [19] was 0.137 µg/mL and the IC50, titer in TZM.bl cells [20] was 0.293 µg/mL. The IC80, titer in TZM.bl cells [20] was 1.05 µg/mL, the IC50, titer in TZM.bl cells [21] was 0.005 µg/mL and the IC80, titer in TZM.bl cells [21] was 0.014 µg/mL. It also gave an IC50, titer in TZM.bl cells [22] of 0.112 µg/mL, an IC80, titer in TZM.bl cells [22] of 0.323 µg/mL and an IC50, titer in TZM.bl cells [23] of 0.022 µg/mL. For the same substance, the IC80, titer in TZM.bl cells [23] was 0.103 µg/mL, the IC50, titer in TZM.bl cells [24] was 0.101 µg/mL and the IC80, titer in TZM.bl cells [24] was 0.45 µg/mL. For the same substance, the IC50, titer in TZM.bl cells [25] was 1.48 µg/mL, the IC80, titer in TZM.bl cells [25] was 8.72 µg/mL and the IC50, titer in TZM.bl cells [26] was 1.75 µg/mL. The IC80, titer in TZM.bl cells [26] was 6.33 µg/mL, the IC50, titer in TZM.bl cells [27] was 0.131 µg/mL and the IC80, titer in TZM.bl cells [27] was 0.6 µg/mL. It also gave an IC50, titer in TZM.bl cells [28] of 0.07 µg/mL and an IC80, titer in TZM.bl cells [28] of 0.206 µg/mL.
PG16 (antibody) gave an IC50, titer in TZM.bl cells [1] of 0.006 µg/mL, an IC80, titer in TZM.bl cells [1] of 0.026 µg/mL and an IC50, titer in TZM.bl cells [2] of over 50 µg/mL. It also gave an IC80, titer in TZM.bl cells [2] of over 50 µg/mL, an IC50, titer in TZM.bl cells [3] of 3.63 µg/mL and an IC80, titer in TZM.bl cells [3] of 47.2 µg/mL. For the same substance, the IC50, titer in TZM.bl cells [4] was 0.001 µg/mL, the IC80, titer in TZM.bl cells [4] was 0.003 µg/mL and the IC50, titer in TZM.bl cells [5] was 0.653 µg/mL. The IC80, titer in TZM.bl cells [5] was over 50 µg/mL, the IC50, titer in TZM.bl cells [6] was over 50 µg/mL and the IC80, titer in TZM.bl cells [6] was over 50 µg/mL. It also gave an IC50, titer in TZM.bl cells [7] of 1.83 µg/mL, an IC80, titer in TZM.bl cells [7] of 33 µg/mL and an IC50, titer in TZM.bl cells [8] of over 50 µg/mL. The IC80, titer in TZM.bl cells [8] was over 50 µg/mL, the IC50, titer in TZM.bl cells [9] was 15.3 µg/mL and the IC80, titer in TZM.bl cells [9] was over 50 µg/mL. For the same substance, the IC50, titer in TZM.bl cells [10] was 0.002 µg/mL, the IC80, titer in TZM.bl cells [10] was 0.005 µg/mL and the IC50, titer in TZM.bl cells [11] was 0.009 µg/mL. It also gave an IC80, titer in TZM.bl cells [11] of 0.042 µg/mL, an IC50, titer in TZM.bl cells [12] of 0.009 µg/mL and an IC80, titer in TZM.bl cells [12] of 0.026 µg/mL. The IC50, titer in TZM.bl cells [13] was 0.435 µg/mL, the IC80, titer in TZM.bl cells [13] was over 50 µg/mL and the IC50, titer in TZM.bl cells [14] was 0.002 µg/mL. The IC80, titer in TZM.bl cells [14] was 0.006 µg/mL, the IC50, titer in TZM.bl cells [15] was 0.002 µg/mL and the IC80, titer in TZM.bl cells [15] was 0.006 µg/mL. The IC50, titer in TZM.bl cells [16] was 0.375 µg/mL, the IC80, titer in TZM.bl cells [16] was 3.92 µg/mL and the IC50, titer in TZM.bl cells [17] was 0.065 µg/mL. For the same substance, the IC80, titer in TZM.bl cells [17] was 45.9 µg/mL, the IC50, titer in TZM.bl cells [18] was 0.023 µg/mL and the IC80, titer in TZM.bl cells [18] was 0.417 µg/mL. For the same substance, the IC50, titer in TZM.bl cells [19] was 0.021 µg/mL, the IC80, titer in TZM.bl cells [19] was 0.116 µg/mL and the IC50, titer in TZM.bl cells [20] was 0.347 µg/mL. It also gave an IC80, titer in TZM.bl cells [20] of 4.97 µg/mL, an IC50, titer in TZM.bl cells [21] of 0.002 µg/mL and an IC80, titer in TZM.bl cells [21] of 0.004 µg/mL. It also gave an IC50, titer in TZM.bl cells [22] of 0.016 µg/mL, an IC80, titer in TZM.bl cells [22] of 0.189 µg/mL and an IC50, titer in TZM.bl cells [23] of 0.008 µg/mL. The IC80, titer in TZM.bl cells [23] was 0.053 µg/mL, the IC50, titer in TZM.bl cells [24] was 0.034 µg/mL and the IC80, titer in TZM.bl cells [24] was 0.237 µg/mL. It also gave an IC50, titer in TZM.bl cells [25] of 1.75 µg/mL, an IC80, titer in TZM.bl cells [25] of over 50 µg/mL and an IC50, titer in TZM.bl cells [26] of over 50 µg/mL. The IC80, titer in TZM.bl cells [26] was over 50 µg/mL, the IC50, titer in TZM.bl cells [27] was over 50 µg/mL and the IC80, titer in TZM.bl cells [27] was over 50 µg/mL. For the same substance, the IC50, titer in TZM.bl cells [28] was 0.007 µg/mL and the IC80, titer in TZM.bl cells [28] was 0.037 µg/mL.
